The text below walks through data of PMC12212125, “Constitutively active Arabidopsis cryptochrome two alleles identified using yeast selection and deep mutational scanning” (The Journal of Biological Chemistry, 2025).

First the molecules themselves.
B1: Arabidopsis thaliana cryptochrome 2 (CRY2, UniProt Q96524), residues 1-535 fused after the Gal4 DNA-binding domain (Gal4BD-CRY2(535)); mutagenized window 321-412, Q96524 (parent)
chain: MKMDKKTIVWFRRDLRIEDNPALAAAAHEGSVFPVFIWCPEEEGQFYPGRASRWWMKQSLAHLSQSLKALGSDLTLIKTHNTISAILDCIRVTGATKVVFNHLYDPVSLVRDHTVKEKLVERGISVQSYNGDLLYEPWEIYCEKGKPFTSFNSYWKKCLDMSIESVMLPPPWRLMPITAAAEAIWACSIEELGLENEAEKPSNALLTRAWSPGWSNADKLLNEFIEKQLIDYAKNSKKVVGNSTSLLSPYLHFGEISVRHVFQCARMKQIIWARDKNSEGEESADLFLRGIGLREYSRYICFNFPFTHEQSLLSHLRFFPWDADVDKFKAWRQGRTGYPLVDAGMRELWATGWMHNRIRVIVSSFAVKFLLLPWKWGMKYFWDTLLDADLECDILGWQYISGSIPDGHELDRLDNPALQGAKYDPEGEYIRQWLPELARLPTEWIHHPWDAPLTVLKASGVELGTNYAKPIVDIDTARELLAKAISRTREAQIMIGAAPDEIVADSFEALGANTIKEPGLCPSVSSNDQQVPSAV

Variants of B1 are the subject of this test. Put plainly: yeast two-hybrid growth selection (MaV203; Gal4BD-CRY2(1-535) library x Gal4AD-CIB1; URA3 reporter on SC -Trp/-Leu/-Ura) in the dark, deep sequencing before and after selection, Enrich2 scoring; three independent screens (one at 48 h, two …). As to conditions: with CIB1 (CRYPTOCHROME-INTERACTING BASIC-HELIX-LOOP-HELIX 1), dark (no blue light), screens 1, 3 and 4, Svar > 0 = enriched under dark selection for CRY2-CIB1 two-hybrid growth (URA3 reporter), < 0 = depleted, relative to wild type (whose scores are 0). 'The Enrich2 software calculates, parent: 0, not an affinity, scale: Enrich2 score, numbering: uniprot, sequence starts at 1.
Turning to I404S, the enrichment was 1.61. Under I404Y stands 1.4; under I404T, -0.507; under I404A, 1.16. For the variant I404N, the enrichment was 1.51.

In the case of I404F, the enrichment was 2.25.

As to I404V, the enrichment is -0.182. The figure for L410R is 1.71. Under G407R stands -0.0452. As to G407V, the enrichment was 1.39. On to G407S, for which the enrichment was -0.771.

On to G407D, for which the enrichment is 1.47.

Regarding G407A, the enrichment was -0.714. G407N: the enrichment is 2.77.

G407C: the enrichment was 1.11. Under H408R stands 2.75.

As to H408Y, the enrichment is -0.432. The figure for H408L is 1.61; for H408P it is 1.5. In the case of S403N, the enrichment was 0.435. Take S403R: the enrichment is 2.21. The figure for D406E is -0.152; for D406A it is -0.00151; for D406V it is 2.12. Under D406Y stands -0.496; under D406G, -0.172. Under D406H stands -0.803; under D406N, -0.7; under D411E, 1.55. With P405T, the enrichment is 0.224. The figure for P405H is 1.08.

With P405R, the enrichment was 1.02. The figure for P405A is 0.742. Regarding P405L, the enrichment is 2. The figure for E409A is -0.172. The figure for E409G is 0.152. Take E409V: the enrichment was 0.507.

E409D: the enrichment is 0.454.

As to E409T, the enrichment was 0.84.

As to E409K, the enrichment was -0.366.
